Test results reported in US20260242478A1 (published 2026).

Columns and labels:
Assay in all cases: binding ELISA, biotinylated peptide on neutravidin plate, Fab titrated
[1] = biological target: T1, Peptide-140
T1 peptide: TCAAGAAWPWPQCL

[2] = biological target: T2, Peptide-143
T2 peptide: TCAAGAAWGWPLCF

[3] = biological target: T3, Peptide-138
T3 peptide: LCAAGASWPWPVCL

[4] = biological target: T4, Peptide-137
T4 peptide: TCSAGATWPWPICL

[5] = biological target: T5, Peptide-141
T5 peptide: TCSAGATYTWPKCF

[6] = biological target: T6, Peptide-149
T6 peptide: TCSAGATYEWPRCL

[7] = biological target: T7, Peptide-84
T7 peptide: YCAGHSPINIGKCL

[8] = biological target: T8, Peptide-92
T8 peptide: SCAAGASYAWPYCL

[9] = biological target: T9, Peptide-41
T9 peptide: MDWCPRDLWVHCFA

[10] = biological target: T10, Peptide-79
T10 peptide: ACDTYFAGMINECF

[11] = biological target: T11, Peptide-87
T11 peptide: YCAGHAWQYINKCL

B1: anti-CD28 Fab (Fab, V domains shown)
VH: QVQLVQSGAEVKKPGASVKVSCKASGYTFTSYYIHWVRQAPGQGLEWIGSIYPGNVNTNYNEKFKDRATLTVDTSISTAYMELSRLRSDDTAVYFCTRSHYGLDWNFDVWGQGTTVTVSS
VL: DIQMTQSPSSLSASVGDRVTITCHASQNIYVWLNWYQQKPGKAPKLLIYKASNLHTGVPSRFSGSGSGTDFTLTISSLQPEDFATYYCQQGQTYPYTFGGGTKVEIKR
B1 was tested, and the EC50 [1] was 0.0026 µM, the EC50 [2] was 0.0056 µM and the EC50 [3] was 0.0131 µM. It also gave an EC50 [4] of 0.0021 µM, an EC50 [5] of 0.0157 µM and an EC50 [6] of 0.0128 µM. It also gave an EC50 [7] of 0.337 µM, an EC50 [8] of 0.054 µM and an EC50 [9] of 0.49 µM. For the same binder, the EC50 [10] was 0.097 µM and the EC50 [11] was 0.049 µM.
